Tests used:
[1] = target: T1, Recombinant Human DLL4 (R&D Systems Cat#1506-D4/CF) (human, UniProt Q9NR61 27-524); experiment: ECL (MSD) binding assay, immobilised DLL4, 10 nM Fab;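 also: fab binding read as electrochemiluminescence via a TAG-labelled detection antibody, 1 h incubations at 20 °C, antigen signal compared with each well's blank, ratio of at least 4 scored as binder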
T1 construct: Bought recombinant human DLL4; also called delta-like protein 4; rHuman DLL4

[2] = target: T1, Recombinant Human DLL4 (R&D Systems …); experiment: ELISA on coated DLL4, 100 nM Fab
[3] = target: T2, Recombinant Human DLL4 (delta-like protein 4) (human, UniProt Q9NR61 27-524); experiment: ELISA on coated DLL4, Fab at 12.5 nM (2-fold serial dilution)
T2 construct: also called rHuman DLL4; Delta-like 4

[4] = target: T2, Recombinant Human DLL4 (delta-like …); experiment: ELISA on coated DLL4, Fab at 3.125 nM (2-fold serial dilution)
[5] = target: T2, Recombinant Human DLL4 (delta-like …); experiment: ELISA on coated DLL4, Fab at 25 nM (2-fold serial dilution)
[6] = target: T2, Recombinant Human DLL4 (delta-like …); experiment: ELISA on coated DLL4, Fab at 50 nM (2-fold serial dilution)
[7] = target: T2, Recombinant Human DLL4 (delta-like …); experiment: ELISA on coated DLL4, Fab at 100 nM (2-fold serial dilution)
[8] = target: T2, Recombinant Human DLL4 (delta-like …); experiment: ELISA on coated DLL4, Fab at 6.25 nM (2-fold serial dilution)

Binder | ECL Signal [10 nM Fab] [1] | ELISA Signal [100 nM Fab] [2] | ELISA signal [3] | ELISA signal [4] | ELISA signal [5] | ELISA signal [6] | ELISA signal [7] | ELISA signal [8]
Fab VH5-51_IGHD5-18*01>3_IGHJ4*01 G100K/G104T (H:KT) & V3-4_IGLJ1*01 (Fab, V domains shown, Fab format: CH1 with His6 and Flag tags, and lambda CL, from the vectors; also called KT double mutant; H:KT & L:wt) VH: EVQLVQSGAEVKKPGESLKISCKGSGYSFTSYWIGWVRQMPGKGLEWMGIIYPGDSDTRYSPSFQGQVTISADKSISTAYLQWSSLKASDTAMYYCARRKYSYTYDYFDYWGQGTLVTVSS VL: QTVVTQEPSFSVSPGGTVTLTCGLSSGSVSTSYYPSWYQQTPGQAPRTLIYSTNTRSSGVPDRFSGSILGNKAALTITGAQADDESDYYCVLYMGSGISYVFGTGTKVTVL | 36600 | 0.01 |  |  |  |  |  | 
Fab VH5-51_IGHD5-18*01>3_IGHJ4*01 G100K/G104T (H:KT) & V3-4_IGLJ1*01 S96E (Fab, V domains shown, Fab format: CH1 with His6 and Flag tags, and lambda CL, from the vectors; also called G100K/G104T & S96E) VH: EVQLVQSGAEVKKPGESLKISCKGSGYSFTSYWIGWVRQMPGKGLEWMGIIYPGDSDTRYSPSFQGQVTISADKSISTAYLQWSSLKASDTAMYYCARRKYSYTYDYFDYWGQGTLVTVSS VL: QTVVTQEPSFSVSPGGTVTLTCGLSSGSVSTSYYPSWYQQTPGQAPRTLIYSTNTRSSGVPDRFSGSILGNKAALTITGAQADDESDYYCVLYMGEGISYVFGTGTKVTVL | 57000 | 0.02 |  |  |  |  |  | 
Fab VH5-51_IGHD5-18*01>3_IGHJ4*01 G100K/G104T (H:KT) & V3-4_IGLJ1*01 S96A (Fab, V domains shown, Fab format: CH1 with His6 and Flag tags, and lambda CL, from the vectors; also called G100K/G104T & S96A) VH: EVQLVQSGAEVKKPGESLKISCKGSGYSFTSYWIGWVRQMPGKGLEWMGIIYPGDSDTRYSPSFQGQVTISADKSISTAYLQWSSLKASDTAMYYCARRKYSYTYDYFDYWGQGTLVTVSS VL: QTVVTQEPSFSVSPGGTVTLTCGLSSGSVSTSYYPSWYQQTPGQAPRTLIYSTNTRSSGVPDRFSGSILGNKAALTITGAQADDESDYYCVLYMGAGISYVFGTGTKVTVL | 1130 | 0 |  |  |  |  |  | 
Fab VH5-51_IGHD5-18*01>3_IGHJ4*01 G100K/G104T (H:KT) & V3-4_IGLJ1*01 S96L (Fab, V domains shown, Fab format: CH1 with His6 and Flag tags, and lambda CL, from the vectors; also called G100K/G104T & S96L) VH: EVQLVQSGAEVKKPGESLKISCKGSGYSFTSYWIGWVRQMPGKGLEWMGIIYPGDSDTRYSPSFQGQVTISADKSISTAYLQWSSLKASDTAMYYCARRKYSYTYDYFDYWGQGTLVTVSS VL: QTVVTQEPSFSVSPGGTVTLTCGLSSGSVSTSYYPSWYQQTPGQAPRTLIYSTNTRSSGVPDRFSGSILGNKAALTITGAQADDESDYYCVLYMGLGISYVFGTGTKVTVL | 40000 | 0.02 |  |  |  |  |  | 

Now from value to binder:

ECL Signal [10 nM Fab] [1] | ELISA Signal [100 nM Fab] [2] | ELISA signal [3] | ELISA signal [4] | ELISA signal [5] | ELISA signal [6] | ELISA signal [7] | ELISA signal [8] | Binder
42300 | 0.01 |  |  |  |  |  |  | Fab VH5-51_IGHD5-18*01>3_IGHJ4*01 G100K/G104T (H:KT) & V3-4_IGLJ1*01 S96V (Fab, V domains shown, Fab format: CH1 with His6 and Flag tags, and lambda CL, from the vectors; also called G100K/G104T & S96V) VH: EVQLVQSGAEVKKPGESLKISCKGSGYSFTSYWIGWVRQMPGKGLEWMGIIYPGDSDTRYSPSFQGQVTISADKSISTAYLQWSSLKASDTAMYYCARRKYSYTYDYFDYWGQGTLVTVSS VL: QTVVTQEPSFSVSPGGTVTLTCGLSSGSVSTSYYPSWYQQTPGQAPRTLIYSTNTRSSGVPDRFSGSILGNKAALTITGAQADDESDYYCVLYMGVGISYVFGTGTKVTVL
54300 | 0.02 |  |  |  |  |  |  | Fab VH5-51_IGHD5-18*01>3_IGHJ4*01 G100K/G104T (H:KT) & V3-4_IGLJ1*01 S96R (Fab, V domains shown, Fab format: CH1 with His6 and Flag tags, and lambda CL, from the vectors; also called G100K/G104T & S96R) VH: EVQLVQSGAEVKKPGESLKISCKGSGYSFTSYWIGWVRQMPGKGLEWMGIIYPGDSDTRYSPSFQGQVTISADKSISTAYLQWSSLKASDTAMYYCARRKYSYTYDYFDYWGQGTLVTVSS VL: QTVVTQEPSFSVSPGGTVTLTCGLSSGSVSTSYYPSWYQQTPGQAPRTLIYSTNTRSSGVPDRFSGSILGNKAALTITGAQADDESDYYCVLYMGRGISYVFGTGTKVTVL
 |  | 0.184 | 0.18 | 0.205 | 0.211 | 0.231 | 0.182 | Fab VH5-51_IGHD5-18*01>3_IGHJ4*01 G100K/G104T (KT) & V3-4_IGLJ1*01 R56Y (Fab, V domains shown, Fab; also called H:KT & L:R56Y) VH: EVQLVQSGAEVKKPGESLKISCKGSGYSFTSYWIGWVRQMPGKGLEWMGIIYPGDSDTRYSPSFQGQVTISADKSISTAYLQWSSLKASDTAMYYCARRKYSYTYDYFDYWGQGTLVTVSS VL: QTVVTQEPSFSVSPGGTVTLTCGLSSGSVSTSYYPSWYQQTPGQAPRTLIYSTNTYSSGVPDRFSGSILGNKAALTITGAQADDESDYYCVLYMGSGISYVFGTGTKVTVL
 |  | 0.233 | 0.257 | 0.221 | 0.245 | 0.298 | 0.278 | Fab VH5-51_IGHD5-18*01>3_IGHJ4*01 G100K/G104T G24L & V3-4_IGLJ1*01 (Fab, V domains shown, Fab; also called H:KT G24L & L:parent) VH: EVQLVQSGAEVKKPGESLKISCKLSGYSFTSYWIGWVRQMPGKGLEWMGIIYPGDSDTRYSPSFQGQVTISADKSISTAYLQWSSLKASDTAMYYCARRKYSYTYDYFDYWGQGTLVTVSS VL: QTVVTQEPSFSVSPGGTVTLTCGLSSGSVSTSYYPSWYQQTPGQAPRTLIYSTNTRSSGVPDRFSGSILGNKAALTITGAQADDESDYYCVLYMGSGISYVFGTGTKVTVL

Reference: patent publication US20120316071A1 (published 2012)
